# Laboratory results reported in PMC4255524.
# B1: untagged Homo sapiens ARL6 Q73L ΔN (domain or fragment)
# chain: KEVHVLCLGLDNSGKTTIINKLKPSNAQSQNILPTIGFSIEKFKSSSLSFTVFDMSGLGRYRNLWEHYYKEGQAIIFVIDSSDRLRMVVAKEELDTLLNHPDIKHRRIPILFFANKMDLRDAVTSVKVSQLLCLENIKDKPWHICASDAIKGEGLQEGVDWLQDQIQTVKT
# Columns and labels:
# [1] = biological target: N-terminal domain of Chlamydomonas reinhardtii BBS1 (residues 1–425) (Chlamydomonas reinhardtii); assay: ITC
# [2] = biological target: N-terminal domain of Homo sapiens BBS1 with the patient mutation E234K (Homo sapiens) (UniProt Q8NFJ9); assay: ITC
# Chain of UniProt Q8NFJ9 (Q8NFJ9 1-417 E234K): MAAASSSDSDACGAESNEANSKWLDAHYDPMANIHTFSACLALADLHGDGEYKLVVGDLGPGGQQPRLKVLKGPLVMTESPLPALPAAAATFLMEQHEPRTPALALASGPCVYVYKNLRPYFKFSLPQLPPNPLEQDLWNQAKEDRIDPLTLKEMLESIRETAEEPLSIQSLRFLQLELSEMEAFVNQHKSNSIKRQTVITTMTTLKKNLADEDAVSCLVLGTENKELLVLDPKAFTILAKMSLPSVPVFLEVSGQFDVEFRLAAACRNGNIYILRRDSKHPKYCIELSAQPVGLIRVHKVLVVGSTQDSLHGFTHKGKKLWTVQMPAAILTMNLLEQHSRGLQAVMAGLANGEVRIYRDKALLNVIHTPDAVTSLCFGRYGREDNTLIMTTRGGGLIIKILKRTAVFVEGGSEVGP
molecule,measurement,setting,value
"Chlamydomonas reinhardtii ARL6ΔN (residues 1–15 deleted), GTP-bound (domain or fragment)",Kd,[1],350 nM
same,stoichiometry N,[1],1
B1,Kd,[2],350 nM
